From patent US20250387474A1 (MEDICENNA THERAPEUTICS, published 2025)

Biological target: T1, MDNA132LR-Fc (1:1 KIH) (Homo sapiens (Human), UniProt P0DOX5 223-448 = IgG part)
T1 construct: also called MDNA132^L39/R111-Fc (1:1 KIH); MDNA132-Fc
Experiment: SPR, construct captured on anti-human IgG (Fc) antibody on a CM5 chip, human receptor as analyte

Row | Kd [nM] | binding result | Binder
1 | 3.6 |  | human IL-13Rα2 (receptor, UniProt Q14627 27-343, looked up, also called Human IL-13 R alpha 2 Protein; IL-13 decoy receptor) DTEIKVNPPQDFEIVDPGYLGYLYLQWQPPLSLDHFKECTVEYELKYRNIGSETWKTIITKNLHYKDGFDLNKGIEAKIHTLLPWQCTNGSEVQSSWAETTYWISPQGIPETKVQDMDCVYYNWQYLLCSWKPGIGVLLDTNYNLFYWYEGLDHALQCVDYIKADGQNIGCRFPYLEASDYKDFYICVNGSSENKPIRSSYFTFQLQNIVKPLPPVYLTFTRESSCEIKLKWSIPLGPIPARCFDYEIEIREDDTTLVTATVENETYTLKTTNETRQLCFVVRSKVNIYCSDDGIWSEWSDKQCWEGEDLSKKTLLR
2 |  | no binding (tested: 1000 nM) | human IL-13Rα1 (receptor, also called Human IL-13 R alpha 1 Protein; IL-13 functional receptor) GGGGAAPTETQPPVTNLSVSVENLCTVIWTWNPPEGASSNCSLWYFSHFGDKQDKKIAPETRRSIEVPLNERICLQVGSQCSTNESEKPSILVEKCISPPEGDPESAVTELQCIWHNLSYMKCSWLPGRNTSPDTNYTLYYWHRSLEKIHQCENIFREGQYFGCSFDLTKVKDSSFEQHSVQIMVKDNAGKIKPSFNIVPLTSRVKPDPPHIKNLSFHNDDLYVQWENPQNFISRCLFYEVEVNNSQTETHNVFYVQEAKCENPEFERNVENTSCFMVPGVLPDTLNTVRIRVKTNKLCYEDDKLWSNWSQEMSIGKKRNST
